These are literature values, as cited in patent US20030144198A1, “Coadministration of transport protein with conjugated cobalamin to deliver agents” (priority 2001, published 2003).

For data set [1] the following is noted: the D isomer was not hydrolyzed.
In data set [2] the target is cubilin (Homo sapiens, UniProt O60494). Particulars: at 20° C., single binding site, dependent on calcium.
For data set [3] the following is noted: in plasma.

Chain of cubilin (O60494 36-3623, species assumed): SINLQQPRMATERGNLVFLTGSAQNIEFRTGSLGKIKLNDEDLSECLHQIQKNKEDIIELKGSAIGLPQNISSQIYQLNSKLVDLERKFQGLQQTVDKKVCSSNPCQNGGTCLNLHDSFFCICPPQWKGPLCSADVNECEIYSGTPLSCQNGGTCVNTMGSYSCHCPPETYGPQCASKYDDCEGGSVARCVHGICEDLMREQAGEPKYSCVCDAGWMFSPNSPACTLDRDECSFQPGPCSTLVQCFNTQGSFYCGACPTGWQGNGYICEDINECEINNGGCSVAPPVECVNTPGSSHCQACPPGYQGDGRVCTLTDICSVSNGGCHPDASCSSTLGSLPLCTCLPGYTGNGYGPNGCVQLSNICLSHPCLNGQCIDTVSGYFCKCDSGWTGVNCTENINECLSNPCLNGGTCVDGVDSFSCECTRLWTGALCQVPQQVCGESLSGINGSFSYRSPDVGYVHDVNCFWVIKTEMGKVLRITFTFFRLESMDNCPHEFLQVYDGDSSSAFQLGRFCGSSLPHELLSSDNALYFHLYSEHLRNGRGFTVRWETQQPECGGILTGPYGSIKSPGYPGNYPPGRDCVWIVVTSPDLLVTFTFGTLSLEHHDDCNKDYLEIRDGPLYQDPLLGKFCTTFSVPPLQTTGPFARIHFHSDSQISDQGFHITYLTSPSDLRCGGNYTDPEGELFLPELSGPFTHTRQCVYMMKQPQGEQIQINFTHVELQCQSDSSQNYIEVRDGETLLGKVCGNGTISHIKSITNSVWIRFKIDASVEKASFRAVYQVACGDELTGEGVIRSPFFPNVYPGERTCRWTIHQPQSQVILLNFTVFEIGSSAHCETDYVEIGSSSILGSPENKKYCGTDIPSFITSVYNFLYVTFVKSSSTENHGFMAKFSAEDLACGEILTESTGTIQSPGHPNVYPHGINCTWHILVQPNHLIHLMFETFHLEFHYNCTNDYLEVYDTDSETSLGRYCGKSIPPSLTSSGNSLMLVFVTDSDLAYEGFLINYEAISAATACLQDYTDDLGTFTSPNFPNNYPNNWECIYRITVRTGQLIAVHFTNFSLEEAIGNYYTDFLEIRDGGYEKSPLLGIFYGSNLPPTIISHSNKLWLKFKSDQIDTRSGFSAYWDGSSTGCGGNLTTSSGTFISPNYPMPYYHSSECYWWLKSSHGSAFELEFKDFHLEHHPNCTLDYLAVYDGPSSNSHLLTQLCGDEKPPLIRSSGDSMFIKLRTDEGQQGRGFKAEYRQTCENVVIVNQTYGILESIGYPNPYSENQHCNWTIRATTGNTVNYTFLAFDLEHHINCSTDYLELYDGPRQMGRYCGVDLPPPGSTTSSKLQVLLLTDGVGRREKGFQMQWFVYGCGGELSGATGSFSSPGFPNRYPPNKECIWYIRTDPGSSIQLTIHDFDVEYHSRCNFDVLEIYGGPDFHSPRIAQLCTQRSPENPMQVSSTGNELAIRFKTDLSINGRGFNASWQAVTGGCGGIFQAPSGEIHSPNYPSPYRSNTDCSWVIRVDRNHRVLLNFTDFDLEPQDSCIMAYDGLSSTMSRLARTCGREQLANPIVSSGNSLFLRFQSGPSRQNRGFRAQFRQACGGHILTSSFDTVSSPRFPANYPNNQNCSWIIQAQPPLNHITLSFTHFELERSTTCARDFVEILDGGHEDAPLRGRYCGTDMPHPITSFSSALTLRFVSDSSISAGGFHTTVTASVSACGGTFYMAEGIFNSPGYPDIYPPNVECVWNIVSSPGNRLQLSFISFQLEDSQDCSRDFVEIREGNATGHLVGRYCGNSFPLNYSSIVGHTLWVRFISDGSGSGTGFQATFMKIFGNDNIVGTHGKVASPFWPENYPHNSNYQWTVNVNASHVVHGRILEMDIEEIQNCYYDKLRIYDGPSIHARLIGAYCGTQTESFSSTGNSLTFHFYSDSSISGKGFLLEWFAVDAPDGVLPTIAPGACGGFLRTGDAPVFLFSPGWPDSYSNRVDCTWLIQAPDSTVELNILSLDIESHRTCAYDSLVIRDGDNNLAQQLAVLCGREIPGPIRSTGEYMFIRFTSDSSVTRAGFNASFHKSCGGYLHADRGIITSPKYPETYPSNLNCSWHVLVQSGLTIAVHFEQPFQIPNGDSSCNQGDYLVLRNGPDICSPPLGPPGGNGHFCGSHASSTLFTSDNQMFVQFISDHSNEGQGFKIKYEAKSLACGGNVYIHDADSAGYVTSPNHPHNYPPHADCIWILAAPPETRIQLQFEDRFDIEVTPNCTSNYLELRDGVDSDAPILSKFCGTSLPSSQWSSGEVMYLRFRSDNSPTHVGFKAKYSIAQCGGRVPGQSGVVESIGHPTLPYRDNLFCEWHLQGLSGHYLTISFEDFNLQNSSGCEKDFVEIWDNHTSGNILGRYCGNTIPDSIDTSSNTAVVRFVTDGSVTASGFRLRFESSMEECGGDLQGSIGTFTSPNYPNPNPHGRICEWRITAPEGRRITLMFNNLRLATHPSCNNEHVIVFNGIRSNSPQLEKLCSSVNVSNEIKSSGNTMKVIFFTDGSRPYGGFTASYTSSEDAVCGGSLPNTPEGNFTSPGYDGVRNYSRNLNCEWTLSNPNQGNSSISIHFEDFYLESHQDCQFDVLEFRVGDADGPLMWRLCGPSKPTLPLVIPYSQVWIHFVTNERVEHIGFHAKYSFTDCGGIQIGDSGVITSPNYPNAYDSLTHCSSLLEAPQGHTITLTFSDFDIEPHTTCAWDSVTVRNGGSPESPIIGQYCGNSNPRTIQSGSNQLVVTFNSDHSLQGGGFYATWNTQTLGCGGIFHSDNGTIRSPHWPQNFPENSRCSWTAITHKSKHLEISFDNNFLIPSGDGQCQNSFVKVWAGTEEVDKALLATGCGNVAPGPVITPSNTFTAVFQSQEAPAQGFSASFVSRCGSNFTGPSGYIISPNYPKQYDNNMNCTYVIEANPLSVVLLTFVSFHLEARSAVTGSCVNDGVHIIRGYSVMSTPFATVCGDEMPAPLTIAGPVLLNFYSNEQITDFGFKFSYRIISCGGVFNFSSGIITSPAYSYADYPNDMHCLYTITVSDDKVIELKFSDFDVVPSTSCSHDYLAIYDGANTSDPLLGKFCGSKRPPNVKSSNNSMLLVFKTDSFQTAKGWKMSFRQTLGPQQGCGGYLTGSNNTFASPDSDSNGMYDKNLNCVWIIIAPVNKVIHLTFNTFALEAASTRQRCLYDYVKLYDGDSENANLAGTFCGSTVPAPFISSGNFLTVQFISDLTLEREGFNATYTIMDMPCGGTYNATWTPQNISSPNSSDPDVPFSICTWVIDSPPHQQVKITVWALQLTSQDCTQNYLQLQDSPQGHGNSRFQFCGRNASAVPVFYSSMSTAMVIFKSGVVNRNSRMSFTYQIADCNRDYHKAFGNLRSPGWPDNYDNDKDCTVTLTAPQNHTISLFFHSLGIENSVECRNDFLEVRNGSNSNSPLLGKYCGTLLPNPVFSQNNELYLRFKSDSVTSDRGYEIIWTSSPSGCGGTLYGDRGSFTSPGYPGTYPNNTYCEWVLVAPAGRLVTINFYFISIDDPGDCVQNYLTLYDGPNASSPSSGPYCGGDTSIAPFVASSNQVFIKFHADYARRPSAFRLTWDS
Chain of cubilin (P27352 19-417 partner, species assumed): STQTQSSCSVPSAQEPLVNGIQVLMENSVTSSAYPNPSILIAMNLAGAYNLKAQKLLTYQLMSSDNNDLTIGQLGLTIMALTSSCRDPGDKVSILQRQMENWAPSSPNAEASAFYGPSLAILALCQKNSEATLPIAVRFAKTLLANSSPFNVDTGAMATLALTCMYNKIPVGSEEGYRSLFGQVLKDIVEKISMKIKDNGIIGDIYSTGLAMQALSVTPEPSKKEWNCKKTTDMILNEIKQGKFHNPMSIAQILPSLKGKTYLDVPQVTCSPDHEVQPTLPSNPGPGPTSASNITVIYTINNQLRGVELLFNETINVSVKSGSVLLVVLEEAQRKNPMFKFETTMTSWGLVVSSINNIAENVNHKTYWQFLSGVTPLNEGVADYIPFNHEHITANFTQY

Take `COc1cccc2c1C(=O)c1c(O)c3c(c(O)c1C2=O)C[C@@](O)(C(C)=O)C[C@@H]3O[C@H]1C[C@H](NC(=O)[C@@H](N)CC(C)C)C(O)[C@H](C)O1` (stereo partly drawn) [N-(L-leucyl) daunorubicin]: in data set [1], the hydrolysis in vivo entry is listed as “hydrolyzed in vivo to regenerate daunorubicin”.

Broadly, the Kd is a measure of binding affinity in units of concentration. Turning to “IF-B12: complex of intrinsic factor with vitamin B12”, in data set [2], the dissociation constant Kd was 1 to 5 nM.

B1: HC: haptocorrin, group of cobalamin binding proteins that includes TC-I and TC-III (protein, UniProt P20061 24-433, looked up)
Transcobalamin-1: EICEVSEENYIRLKPLLNTMIQSNYNRGTSAVNVVLSLKLVGIQIQTLMQKMIQQIKYNVKSRLSDVSSGELALIILALGVCRNAEENLIYDYHLIDKLENKFQAEIENMEAHNGTPLTNYYQLSLDVLALCLFNGNYSTAEVVNHFTPENKNYYFGSQFSVDTGAMAVLALTCVKKSLINGQIKADEGSLKNISIYTKSLVEKILSEKKENGLIGNTFSTGEAMQALFVSSDYYNENDWNCQQTLNTVLTEISQGAFSNPNAAAQVLPALMGKTFLDINKDSSCVSASGNFNISADEPITVTPPDSQSYISVNYSVRINETYFTNVTVLNGSVFLSVMEKAQKMNDTIFGFTMEERSWGPYITCIQGLCANNNDRTYWELLSGGEPLSQGAGSYVVRNGENLEVRWSKY
Consider B1, for which, in data set [3], the t1/2 was 240 h.

B2: TC-I: transcobalamin I, plasma cobalamin storage protein (protein, UniProt P20061 24-433, looked up)
Transcobalamin-1: EICEVSEENYIRLKPLLNTMIQSNYNRGTSAVNVVLSLKLVGIQIQTLMQKMIQQIKYNVKSRLSDVSSGELALIILALGVCRNAEENLIYDYHLIDKLENKFQAEIENMEAHNGTPLTNYYQLSLDVLALCLFNGNYSTAEVVNHFTPENKNYYFGSQFSVDTGAMAVLALTCVKKSLINGQIKADEGSLKNISIYTKSLVEKILSEKKENGLIGNTFSTGEAMQALFVSSDYYNENDWNCQQTLNTVLTEISQGAFSNPNAAAQVLPALMGKTFLDINKDSSCVSASGNFNISADEPITVTPPDSQSYISVNYSVRINETYFTNVTVLNGSVFLSVMEKAQKMNDTIFGFTMEERSWGPYITCIQGLCANNNDRTYWELLSGGEPLSQGAGSYVVRNGENLEVRWSKY
Regarding B2, the t1/2 in data set [3] was 240 h.
